From paper PMC10397244, “BIK1 protein homeostasis is maintained by the interplay of different ubiquitin ligases in immune signaling” (Nature Communications, 2023)
Each block holds one binder with its values, some of them ahead of it.

What was measured:
Experiment in all cases: pull-down; GST fusion protein or GST immobilised on GSH beads, incubated with purified recombinant protein; 20 mM Tris-HCl pH 7.5, 150 mM NaCl, 3 mM EDTA, 0.5% Triton X-100, 4 C, 2 h; immunoblot
Details in all cases: both partners purified
[1] = target: T1, GST-RGLG2 (Arabidopsis thaliana, UniProt Q9LY87 1-468)
T1 construct: RGLG2, Arabidopsis; CDS subcloned into a GST-tag vector; also called RING DOMAIN LIGASE 2; source: E. coli BL21 (recombinant); immobilised on GSH beads; not shown: GST, N-terminal, kept
T1 sequence (looked up): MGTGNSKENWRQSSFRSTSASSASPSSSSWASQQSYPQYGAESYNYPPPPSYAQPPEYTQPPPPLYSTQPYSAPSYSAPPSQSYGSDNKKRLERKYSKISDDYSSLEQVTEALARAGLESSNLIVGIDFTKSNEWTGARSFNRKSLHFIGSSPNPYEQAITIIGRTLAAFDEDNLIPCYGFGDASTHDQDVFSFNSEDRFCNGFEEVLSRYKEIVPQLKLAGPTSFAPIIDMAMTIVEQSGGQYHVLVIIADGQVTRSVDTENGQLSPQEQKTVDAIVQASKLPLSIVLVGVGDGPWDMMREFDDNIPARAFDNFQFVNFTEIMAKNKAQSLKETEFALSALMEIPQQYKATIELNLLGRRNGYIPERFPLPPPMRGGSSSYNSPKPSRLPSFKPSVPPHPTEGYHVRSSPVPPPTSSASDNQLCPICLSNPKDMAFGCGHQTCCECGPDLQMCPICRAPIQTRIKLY

[2] = target: T2, RGLG1 (recombinant, in vitro; tag of the experiment not told) (Arabidopsis thaliana, UniProt Q9SS90 1-489)
T2 construct: RGLG1, Arabidopsis; CDS subcloned into His-, GST- or MBP-tag vectors; also called RING DOMAIN LIGASE 1; source: E. coli BL21, purified
T2 sequence (looked up): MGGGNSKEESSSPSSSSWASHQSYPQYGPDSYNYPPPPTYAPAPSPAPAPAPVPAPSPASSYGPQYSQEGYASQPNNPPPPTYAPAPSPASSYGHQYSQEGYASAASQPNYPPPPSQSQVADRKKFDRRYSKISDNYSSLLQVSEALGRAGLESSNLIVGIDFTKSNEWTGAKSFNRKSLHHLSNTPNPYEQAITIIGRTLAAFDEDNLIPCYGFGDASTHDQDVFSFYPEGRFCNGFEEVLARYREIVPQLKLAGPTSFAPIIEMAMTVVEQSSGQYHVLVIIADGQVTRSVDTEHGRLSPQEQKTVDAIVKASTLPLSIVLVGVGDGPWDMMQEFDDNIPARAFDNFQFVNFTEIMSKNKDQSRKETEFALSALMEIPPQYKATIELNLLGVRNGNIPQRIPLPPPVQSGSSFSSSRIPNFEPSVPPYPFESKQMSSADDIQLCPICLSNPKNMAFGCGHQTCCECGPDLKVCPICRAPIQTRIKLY

[3] = target: T3, His-FLAG-RGLG1 (Arabidopsis thaliana, UniProt Q9SS90 1-489)
T3 construct: RGLG1, Arabidopsis; CDS subcloned into modified pET28a; also called RING DOMAIN LIGASE 1; source: E. coli BL21, purified (Ni-NTA); not shown: FLAG, N-terminal, kept
T3 sequence (looked up): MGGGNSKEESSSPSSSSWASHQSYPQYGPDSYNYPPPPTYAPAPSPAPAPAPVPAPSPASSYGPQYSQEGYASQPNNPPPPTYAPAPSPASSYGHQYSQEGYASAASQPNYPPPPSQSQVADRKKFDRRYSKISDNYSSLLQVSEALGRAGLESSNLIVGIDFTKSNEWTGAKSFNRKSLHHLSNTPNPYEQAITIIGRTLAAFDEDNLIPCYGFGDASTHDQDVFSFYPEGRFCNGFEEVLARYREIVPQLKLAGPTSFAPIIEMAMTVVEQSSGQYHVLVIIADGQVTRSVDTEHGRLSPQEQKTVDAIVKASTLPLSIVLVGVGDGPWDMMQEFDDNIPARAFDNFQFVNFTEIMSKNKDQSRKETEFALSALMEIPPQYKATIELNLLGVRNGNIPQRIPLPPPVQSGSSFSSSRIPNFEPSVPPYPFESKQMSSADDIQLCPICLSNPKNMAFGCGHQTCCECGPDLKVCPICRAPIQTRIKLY

[4] = target: T4, RGLG2 (recombinant, in vitro; tag of the experiment not told) (Arabidopsis thaliana, UniProt Q9LY87 1-468)
T4 construct: RGLG2, Arabidopsis; CDS subcloned into His-, GST- or MBP-tag vectors; also called RING DOMAIN LIGASE 2; source: E. coli BL21, purified
T4 sequence (looked up): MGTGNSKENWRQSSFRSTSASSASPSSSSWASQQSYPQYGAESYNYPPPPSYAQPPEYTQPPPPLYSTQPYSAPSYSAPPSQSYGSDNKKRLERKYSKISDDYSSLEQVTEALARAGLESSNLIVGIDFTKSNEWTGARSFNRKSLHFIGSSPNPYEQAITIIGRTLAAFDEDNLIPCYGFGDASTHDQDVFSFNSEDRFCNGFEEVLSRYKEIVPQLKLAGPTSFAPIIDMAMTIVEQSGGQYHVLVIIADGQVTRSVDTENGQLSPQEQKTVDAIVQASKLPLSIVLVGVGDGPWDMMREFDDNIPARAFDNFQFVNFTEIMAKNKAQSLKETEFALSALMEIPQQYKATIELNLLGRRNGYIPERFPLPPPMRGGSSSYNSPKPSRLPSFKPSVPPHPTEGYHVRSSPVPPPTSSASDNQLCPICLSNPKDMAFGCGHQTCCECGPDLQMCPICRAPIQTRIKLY

binding result [1]: binds
B1: His-FLAG-PUB25 (natural protein, Arabidopsis thaliana, UniProt Q9LT79 1-421, looked up)
chain: MPRNIEPLDLGIQIPYHFRCPISLELMQDPVTVCTGQTYDRASIESWVSIGNNTTCPVTRAPLSDFTLIPNHTLRRLIQEWCVANRSNGVERIPTPKQPADPTSVRALLSQASAITGTHVSVRSRAAALRRLRGFARDSDKNRVLIAAHNATEILIKILFSETTSSELVSESLALLVMLPITEPNQFVSISSDPGRVEFLTRLLFDSSIETRVNAAALIEIVSTGTKSADLKGSISNSESVFEGVLDLLRNPISSRRALKIGIKTLFALCSVKSTRHIAITAGAPEILIDRLAADFDRCDTERALATVELLCRTPEGCAAFGEHALTVPLLVKTILRVSDRATEYAAGALLALCTAEERWREEAAGAGVVVQLLLMVQSECTERAKKKAQKLLKLLRDSWPDYNSFANSDDFGCSSQVVPF
notes: PUB25, Arabidopsis; CDS subcloned into modified pET28a; also called PLANT U-BOX PROTEIN 25; source: E. coli BL21, purified (Ni-NTA); not shown: FLAG, N-terminal, kept

binding result [2]: binds
B2: PUB25 (recombinant, in vitro; tag of the experiment not told) (natural protein, Arabidopsis thaliana, UniProt Q9LT79 1-421, looked up)
chain: MPRNIEPLDLGIQIPYHFRCPISLELMQDPVTVCTGQTYDRASIESWVSIGNNTTCPVTRAPLSDFTLIPNHTLRRLIQEWCVANRSNGVERIPTPKQPADPTSVRALLSQASAITGTHVSVRSRAAALRRLRGFARDSDKNRVLIAAHNATEILIKILFSETTSSELVSESLALLVMLPITEPNQFVSISSDPGRVEFLTRLLFDSSIETRVNAAALIEIVSTGTKSADLKGSISNSESVFEGVLDLLRNPISSRRALKIGIKTLFALCSVKSTRHIAITAGAPEILIDRLAADFDRCDTERALATVELLCRTPEGCAAFGEHALTVPLLVKTILRVSDRATEYAAGALLALCTAEERWREEAAGAGVVVQLLLMVQSECTERAKKKAQKLLKLLRDSWPDYNSFANSDDFGCSSQVVPF
notes: PUB25, Arabidopsis; CDS subcloned into His-, GST- or MBP-tag vectors; also called PLANT U-BOX PROTEIN 25; source: E. coli BL21, purified

binding result [3]: binds | binding result [4]: binds
B3: GST-BIK1 (natural protein, Arabidopsis thaliana, UniProt O48814 1-395, looked up)
chain: MGSCFSSRVKADIFHNGKSSDLYGLSLSSRKSSSTVAAAQKTEGEILSSTPVKSFTFNELKLATRNFRPDSVIGEGGFGCVFKGWLDESTLTPTKPGTGLVIAVKKLNQEGFQGHREWLTEINYLGQLSHPNLVKLIGYCLEDEHRLLVYEFMQKGSLENHLFRRGAYFKPLPWFLRVNVALDAAKGLAFLHSDPVKVIYRDIKASNILLDADYNAKLSDFGLARDGPMGDLSYVSTRVMGTYGYAAPEYMSSGHLNARSDVYSFGVLLLEILSGKRALDHNRPAKEENLVDWARPYLTSKRKVLLIVDNRLDTQYLPEEAVRMASVAVQCLSFEPKSRPTMDQVVRALQQLQDNLGKPSQTNPVKDTKKLGFKTGTTKSSEKRFTQKPFGRHLV
notes: BIK1, Arabidopsis; pGEX-BIK1 (modified pGEX-6P-1); also called BIK1 fused to a GST tag; source: E. coli BL21, purified; immobilised on GSH beads; not shown: GST, N-terminal, kept
